Here are results for one molecule from patent US20260028402A1.

This assay concerns the target HuCD100-His (human) (UniProt Q92854). Nature of the assay: cell-based or functional assay.

B1: Pepinemab (antibody, INN chains, looked up, V domains shown)
VH: QVQLVQSGAEVKKPGSSVKVSCKASGYSFSDYYMHWVRQAPGQGLEWMGQINPTTGGASYNQKFKGKATITVDKSTSTAYMELSSLRSEDTAVYYCARYYYGRHFDVWGQGTTVTVSS
VL: DIVMTQSPDSLAVSLGERATINCKASQSVDYDGDSYMNWYQQKPGQPPKLLIYAASNLESGVPDRFSGSGSGTDFTLTISSLQAEDVAVYYCQQSNEDPYTFGQGTKLEIK
modifications: IgG4
In the case of B1, the MDSC proportion (%) at 2.821 nM antibody came to 27.1%, the MDSC proportion (%) at 8.463 nM antibody was found to be 16.3%, the MDSC proportion (%) at 25.389 nM antibody came out at 8.29% and the MDSC proportion (%) at 76.166 nM antibody turned out to be 6.92%. Also, the MDSC proportion (%) at 228.498 nM antibody was determined as 6.97% and the MDSC proportion (%) at 685.495 nM antibody turned out to be 10.3%.
